Results reported in IntAct's records for PubMed 30126976.

What was measured:
scrib_human SCRIB [1] = target: scrib_human SCRIB (UniProt Q14160)
dlg1_human DLG1 = dlg1_human DLG1 (UniProt Q12959)
scrib_human SCRIB [2] = target: scrib_human SCRIB (UniProt Q14160); remark: listed apart in the source
ks6a2_human RPS6KA2 [3] = target: ks6a2_human RPS6KA2 (UniProt Q15349)
crcm_human MCC [4] = target: crcm_human MCC (UniProt P23508)
crcm_human MCC [5] = target: crcm_human MCC (UniProt P23508); remark: listed apart in the source
ks6a2_human RPS6KA2 [6] = target: ks6a2_human RPS6KA2 (UniProt Q15349); remark: listed apart in the source
scrib_human SCRIB [7] = target: scrib_human SCRIB (UniProt Q14160); remark: listed apart in the source

crcm_human MCC, sequence (P23508 whole entry): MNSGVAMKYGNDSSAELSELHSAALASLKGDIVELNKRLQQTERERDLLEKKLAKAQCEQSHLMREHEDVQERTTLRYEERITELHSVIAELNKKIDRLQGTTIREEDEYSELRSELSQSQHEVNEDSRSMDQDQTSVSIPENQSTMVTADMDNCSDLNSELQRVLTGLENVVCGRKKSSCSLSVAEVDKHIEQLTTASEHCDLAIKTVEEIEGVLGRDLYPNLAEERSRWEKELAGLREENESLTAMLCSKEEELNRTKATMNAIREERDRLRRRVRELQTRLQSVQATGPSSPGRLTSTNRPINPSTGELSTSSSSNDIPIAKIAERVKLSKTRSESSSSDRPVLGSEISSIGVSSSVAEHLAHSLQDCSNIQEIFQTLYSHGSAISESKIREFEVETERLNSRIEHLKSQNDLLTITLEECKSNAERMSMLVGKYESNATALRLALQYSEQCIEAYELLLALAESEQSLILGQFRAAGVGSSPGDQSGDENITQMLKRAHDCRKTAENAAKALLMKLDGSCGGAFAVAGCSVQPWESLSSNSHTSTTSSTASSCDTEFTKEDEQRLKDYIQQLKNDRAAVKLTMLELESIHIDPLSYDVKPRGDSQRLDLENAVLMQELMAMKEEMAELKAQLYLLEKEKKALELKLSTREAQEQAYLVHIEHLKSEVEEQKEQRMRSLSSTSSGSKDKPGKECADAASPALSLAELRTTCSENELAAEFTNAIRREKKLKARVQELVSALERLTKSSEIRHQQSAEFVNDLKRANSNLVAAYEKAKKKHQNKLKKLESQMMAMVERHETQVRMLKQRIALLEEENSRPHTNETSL
ks6a2_human RPS6KA2, sequence (Q15349 whole entry): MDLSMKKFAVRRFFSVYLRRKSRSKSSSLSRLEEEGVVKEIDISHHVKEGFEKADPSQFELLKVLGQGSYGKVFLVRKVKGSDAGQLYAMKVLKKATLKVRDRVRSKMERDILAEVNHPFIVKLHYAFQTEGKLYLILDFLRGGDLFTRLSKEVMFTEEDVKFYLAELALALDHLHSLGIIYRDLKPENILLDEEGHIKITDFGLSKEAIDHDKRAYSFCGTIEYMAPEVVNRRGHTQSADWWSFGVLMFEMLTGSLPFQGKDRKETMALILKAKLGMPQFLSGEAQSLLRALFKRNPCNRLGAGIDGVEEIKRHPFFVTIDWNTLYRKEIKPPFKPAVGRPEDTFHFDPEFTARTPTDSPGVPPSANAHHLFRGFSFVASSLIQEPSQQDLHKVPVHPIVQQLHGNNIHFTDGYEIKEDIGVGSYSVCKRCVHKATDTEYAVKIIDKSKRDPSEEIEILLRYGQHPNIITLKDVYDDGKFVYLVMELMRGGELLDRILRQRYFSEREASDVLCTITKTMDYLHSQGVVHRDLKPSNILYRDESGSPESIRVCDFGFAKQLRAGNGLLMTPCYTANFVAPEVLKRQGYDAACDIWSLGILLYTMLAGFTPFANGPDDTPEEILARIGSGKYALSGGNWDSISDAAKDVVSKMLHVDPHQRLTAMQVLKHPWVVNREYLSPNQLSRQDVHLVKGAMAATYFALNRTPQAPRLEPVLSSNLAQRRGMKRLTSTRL
scrib_human SCRIB, sequence (Q14160 whole entry): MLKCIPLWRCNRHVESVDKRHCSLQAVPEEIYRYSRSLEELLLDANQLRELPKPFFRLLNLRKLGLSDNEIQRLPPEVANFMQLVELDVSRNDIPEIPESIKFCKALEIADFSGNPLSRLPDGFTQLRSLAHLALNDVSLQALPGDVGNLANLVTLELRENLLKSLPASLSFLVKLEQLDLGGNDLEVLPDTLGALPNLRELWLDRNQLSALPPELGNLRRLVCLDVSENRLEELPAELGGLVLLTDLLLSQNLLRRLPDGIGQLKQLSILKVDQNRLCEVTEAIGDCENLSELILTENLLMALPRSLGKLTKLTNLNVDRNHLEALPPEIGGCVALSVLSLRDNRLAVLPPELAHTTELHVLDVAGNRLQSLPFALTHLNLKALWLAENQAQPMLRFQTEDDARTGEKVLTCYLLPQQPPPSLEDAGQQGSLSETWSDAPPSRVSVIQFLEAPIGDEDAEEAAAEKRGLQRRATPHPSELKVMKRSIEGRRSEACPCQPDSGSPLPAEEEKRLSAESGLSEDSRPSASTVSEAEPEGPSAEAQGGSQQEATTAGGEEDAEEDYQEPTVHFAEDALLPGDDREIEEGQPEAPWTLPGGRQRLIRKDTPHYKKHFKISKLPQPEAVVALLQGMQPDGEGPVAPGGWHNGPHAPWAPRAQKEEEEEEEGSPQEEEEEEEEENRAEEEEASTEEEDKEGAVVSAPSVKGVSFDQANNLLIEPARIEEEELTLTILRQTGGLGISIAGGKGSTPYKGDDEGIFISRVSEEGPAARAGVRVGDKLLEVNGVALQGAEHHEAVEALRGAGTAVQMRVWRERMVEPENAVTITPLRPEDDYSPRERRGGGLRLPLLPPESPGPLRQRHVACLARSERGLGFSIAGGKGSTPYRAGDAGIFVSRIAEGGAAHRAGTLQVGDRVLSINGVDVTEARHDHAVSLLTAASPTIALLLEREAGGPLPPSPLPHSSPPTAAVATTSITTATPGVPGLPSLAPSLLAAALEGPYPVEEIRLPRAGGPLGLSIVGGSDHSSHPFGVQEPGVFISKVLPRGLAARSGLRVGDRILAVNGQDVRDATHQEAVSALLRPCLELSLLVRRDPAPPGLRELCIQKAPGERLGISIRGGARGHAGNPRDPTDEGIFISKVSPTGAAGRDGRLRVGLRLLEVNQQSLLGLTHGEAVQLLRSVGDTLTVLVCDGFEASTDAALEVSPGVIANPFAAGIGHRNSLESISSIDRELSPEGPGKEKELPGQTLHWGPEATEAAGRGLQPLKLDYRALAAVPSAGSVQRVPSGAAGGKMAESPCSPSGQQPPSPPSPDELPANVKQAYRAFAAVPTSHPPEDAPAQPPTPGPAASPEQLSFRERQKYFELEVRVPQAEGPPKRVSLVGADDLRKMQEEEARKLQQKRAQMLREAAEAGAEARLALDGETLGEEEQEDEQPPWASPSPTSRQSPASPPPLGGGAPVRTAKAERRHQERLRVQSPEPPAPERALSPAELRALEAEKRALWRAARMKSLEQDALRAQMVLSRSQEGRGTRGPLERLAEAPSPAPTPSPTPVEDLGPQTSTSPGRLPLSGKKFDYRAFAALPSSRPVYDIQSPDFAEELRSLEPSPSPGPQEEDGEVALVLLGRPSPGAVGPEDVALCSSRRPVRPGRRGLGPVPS
dlg1_human DLG1, sequence (Q12959 whole entry, looked up): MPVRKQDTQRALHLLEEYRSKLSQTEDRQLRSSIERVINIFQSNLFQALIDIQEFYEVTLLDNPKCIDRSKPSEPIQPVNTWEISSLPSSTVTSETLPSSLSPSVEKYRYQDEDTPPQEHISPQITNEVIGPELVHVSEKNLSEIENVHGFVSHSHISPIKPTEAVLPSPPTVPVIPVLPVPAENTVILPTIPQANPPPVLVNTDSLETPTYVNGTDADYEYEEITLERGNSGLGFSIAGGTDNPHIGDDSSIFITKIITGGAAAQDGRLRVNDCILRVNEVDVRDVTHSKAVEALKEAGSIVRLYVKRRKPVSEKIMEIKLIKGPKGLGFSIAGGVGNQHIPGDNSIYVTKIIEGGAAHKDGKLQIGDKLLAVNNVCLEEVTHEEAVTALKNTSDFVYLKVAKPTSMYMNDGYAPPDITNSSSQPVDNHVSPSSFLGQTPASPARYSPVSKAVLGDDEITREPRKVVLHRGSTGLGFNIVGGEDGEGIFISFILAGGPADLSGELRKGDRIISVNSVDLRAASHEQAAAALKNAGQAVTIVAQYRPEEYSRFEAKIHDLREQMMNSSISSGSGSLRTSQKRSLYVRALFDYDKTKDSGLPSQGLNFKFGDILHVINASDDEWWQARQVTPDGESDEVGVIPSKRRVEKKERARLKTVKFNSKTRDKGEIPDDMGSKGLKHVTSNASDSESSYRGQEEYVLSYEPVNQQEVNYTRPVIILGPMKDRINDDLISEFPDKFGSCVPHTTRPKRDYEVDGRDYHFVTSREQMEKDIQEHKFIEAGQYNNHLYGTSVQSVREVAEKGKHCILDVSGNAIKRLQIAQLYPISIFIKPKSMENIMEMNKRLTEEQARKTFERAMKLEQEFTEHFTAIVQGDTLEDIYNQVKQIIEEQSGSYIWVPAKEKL
Wilms tumor protein 1-interacting protein (Homo sapiens), A6NIX2 S422E, sequence (A6NIX2 whole entry S422E): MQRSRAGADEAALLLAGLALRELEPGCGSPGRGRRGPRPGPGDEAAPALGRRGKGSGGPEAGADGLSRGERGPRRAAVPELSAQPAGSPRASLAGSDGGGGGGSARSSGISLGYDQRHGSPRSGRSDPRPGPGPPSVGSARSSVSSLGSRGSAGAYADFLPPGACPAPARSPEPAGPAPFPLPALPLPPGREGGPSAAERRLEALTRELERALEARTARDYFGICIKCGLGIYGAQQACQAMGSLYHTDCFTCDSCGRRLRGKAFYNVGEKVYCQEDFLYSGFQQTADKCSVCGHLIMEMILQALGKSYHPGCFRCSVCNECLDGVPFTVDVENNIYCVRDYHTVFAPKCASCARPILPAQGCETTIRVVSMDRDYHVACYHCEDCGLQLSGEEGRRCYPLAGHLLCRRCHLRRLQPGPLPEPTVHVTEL

Asparagine synthetase domain-containing protein 1 (Homo sapiens), Q9NWL6 T641E
effect of a mutation on the interaction (scrib_human SCRIB [1]): disrupting interaction strength

Protein TANC1 (Homo sapiens), Q9C0D5 S1855E
effect of a mutation on the interaction (dlg1_human DLG1): decreasing interaction strength
effect of a mutation on the interaction (scrib_human SCRIB [2]): decreasing interaction strength

Protein scribble homolog (Homo sapiens), Q14160 A743R
effect of a mutation on the interaction (ks6a2_human RPS6KA2 [3]): increasing interaction strength

Protein scribble homolog (Homo sapiens), Q14160 A743R;R762A
effect of a mutation on the interaction (crcm_human MCC [4]): with no effect
effect of a mutation on the interaction (crcm_human MCC [5]): decreasing interaction strength
effect of a mutation on the interaction (ks6a2_human RPS6KA2 [3]): decreasing interaction strength

Protein scribble homolog (Homo sapiens), Q14160 K746A
effect of a mutation on the interaction (ks6a2_human RPS6KA2 [3]): decreasing interaction strength
effect of a mutation on the interaction (ks6a2_human RPS6KA2 [6]): increasing interaction strength

Protein scribble homolog (Homo sapiens), Q14160 R762A
effect of a mutation on the interaction (crcm_human MCC [5]): decreasing interaction strength
effect of a mutation on the interaction (ks6a2_human RPS6KA2 [3]): decreasing interaction strength
effect of a mutation on the interaction (ks6a2_human RPS6KA2 [6]): increasing interaction strength

Protein scribble homolog (Homo sapiens), Q14160 R801A
effect of a mutation on the interaction (ks6a2_human RPS6KA2 [3]): decreasing interaction strength

Wilms tumor protein 1-interacting protein (Homo sapiens), A6NIX2 S422E
effect of a mutation on the interaction (scrib_human SCRIB [7]): with no effect
